US20160251695

T1: α-fructosyl-valyl-histidine
T1 chain: VH

T2: α-fructosyl-valyl-histidyl-leucyl-threonyl-proryl-glutamic acid
T2 chain: VHLTPE


Key:
[1] = target: T1, α-fructosyl-valyl-histidine
[2] = target: T2, α-fructosyl-valyl-histidyl-leucyl-threon …; settings: for αF6P oxidation activity: scale: relative value

Chain of hemoglobin A1c, P68871 (P68871 2-147, chain 1 of 2): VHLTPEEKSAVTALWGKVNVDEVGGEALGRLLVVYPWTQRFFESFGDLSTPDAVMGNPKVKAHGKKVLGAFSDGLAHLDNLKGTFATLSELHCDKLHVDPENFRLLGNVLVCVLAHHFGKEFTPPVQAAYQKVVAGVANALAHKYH
Chain of hemoglobin A1c, P68871 (chain, as listed by the source, chain 2 of 2): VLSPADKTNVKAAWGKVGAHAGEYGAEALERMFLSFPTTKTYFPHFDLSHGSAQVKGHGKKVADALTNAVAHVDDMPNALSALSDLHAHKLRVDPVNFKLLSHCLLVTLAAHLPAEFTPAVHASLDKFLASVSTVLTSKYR

Protein | αF6P oxidation activity [2] | Specific activity (U/mg), 1 mM αF6P [2] [U/mg] | also measured
CFP-T7-H1 (protein) MTSNRADTRVIVVGGGGTIGSSTALHLVRSGYAPANITVLDTFEIPSAQSAGHDLNKIMGIALRNKVDLQMSLEARQMWKEDELFQPFFHNTGRMDCEHTPEGIEDLKKQYQALHDAGAGLEKTHAWLDNEDEILSKMPLLQRDQIQGWKAIWSQDGGWLAAAKAINAIGQFLKERGVKFGFGGAGSFKQPLFDDEGTTCIGVETADGTKYYADKVVLAAGAWSPTLVDLEDQCCSKAWVYAHIQLTPEEAAEYKGVPVVYNGEFGFFFEPDEFGVIKVCDEFPGFSRFKEHQPYGAPSPKRISVPRSHAKHPTDTYPDASEVSIKKAIATFLPRFQDKELFNRALCWCTDTADAALLMCEHPKWKNFILATGDSGHSFKILPNVGKYVVELIEGRLPEEMAYQWRWRPGGDALKSRRAAPPKDLADMPGWKHDPKL | 0.0316 | – | αFVH oxidation activity [1]: exhibited αF6P oxidation activity, in addition αFV oxidation activity and αFVH oxidation activity
CFP-T7-H20 (protein) MTSNRADTRVIVVGGGGTIGSSTALHLVRSGYAPANITVLDTFEIPSAQSAGHDLNKIMGIDLRNKVDLQMSLEARQMWKEDELFQPFFHNTGRMDCEHTPEGIEKLKKLYQKLHDAGAGLEKTHAWLDNEDEILSKMPLLQRDQIQGWKAIWSQDGGWLAAAKAINAIGQFLKERGVKFGFGGAGSFKQPLFDDEGTTCIGVETADGTKYYADKVVLAAGAWSPTLVDLEDQCCSKAWVYAHIQLTPEEAAEYKGVPVVYNGEFGFFFEPDEFGVIKVCDEFPGFSRFKEHQPYGAPSPKRISVPRSHAKHPTDTYPDASEVSIKKAIATFLPRFQDKELFNRALCWCTDTADAALLMCEHPKWKNFILATGDSGHSFKILPNVGKYVVELIEGRLPEEMAYQWRWRPGGDALKSRRAAPPKDLADMPGWKHDPKL | 20.5 | 0.85 | Specific activity (U/mg), 1 mM αFVH [1]: 4.28 U/mg; αF6P oxidation activity ratio (relative value (CFP-T7-H20 = 100)) [2]: 100
CFP-T7-H21 (protein) MTSNRADTRVIVVGGGGTIGSSTALHLVRSGYAPANITVLDTFEIPSAQSAGHDLNKIMGIDLRNKVDLQMSLEARQMWKEDELFQPFFHNTGRMDCEHTPEGIEKLKKLYQRLHDAGAGLEKTHAWLDNEDEILSKMPLLQRDQIQGWKAIWSQDGGWLAAAKAINAIGQFLKERGVKFGFGGAGSFKQPLFDDEGTTCIGVETADGTKYYADKVVLAAGAWSPTLVDLEDQCCSKAWVYAHIQLTPEEAAEYKGVPVVYNGEFGFFFEPDEFGVIKVCDEFPGFSRFKEHQPYGAPSPKRISVPRSHAKHPTDTYPDASEVSIKKAIATFLPRFQDKELFNRALCWCTDTADAALLMCEHPKWKNFILATGDSGHSFKILPNVGKYVVELIEGRLPEEMAYQWRWRPGGDALKSRRAAPPKDLADMPGWKHDPKL | 20.8 | 0.795 | Specific activity (U/mg), 1 mM αFVH [1]: 4.05 U/mg
CFP-T7-62D (protein) MTSNRADTRVIVVGGGGTIGSSTALHLVRSGYAPANITVLDTFEIPSAQSAGHDLNKIMGIDLRNKVDLQMSLEARQMWKEDELFQPFFHNTGRMDCEHTPEGIEDLKKQYQALHDAGAGLEKTHAWLDNEDEILSKMPLLQRDQIQGWKAIWSQDGGWLAAAKAINAIGQFLKERGVKFGFGGAGSFKQPLFDDEGTTCIGVETADGTKYYADKVVLAAGAWSPTLVDLEDQCCSKAWVYAHIQLTPEEAAEYKGVPVVYNGEFGFFFEPDEFGVIKVCDEFPGFSRFKEHQPYGAPSPKRISVPRSHAKHPTDTYPDASEVSIKKAIATFLPRFQDKELFNRALCWCTDTADAALLMCEHPKWKNFILATGDSGHSFKILPNVGKYVVELIEGRLPEEMAYQWRWRPGGDALKSRRAAPPKDLADMPGWKHDPKL | – | 0.018 | Specific activity (U/mg), 1 mM αFVH [1]: 1.62 U/mg; specific activity on αF6P, fold over PnFX (Comparative Example 3) [2]: 2 times (Amadoriase 26/Comparative Example 3)
CFP-DH2 (protein) MTSNRADTRVIVVGGGGTIGSSTALHLVRSGYAPANITVLDTFPIPSAQSAGHDLNKIMGIDHRNKVNLQMSLEARQMWKEDELFQPFFHNTGRMDCEHTPKGIEKLKKLYQKLHDAGAGLEKTHAWLDNEDAILSKMPLLQRDQIQGWKAIWSQDGGWLAAAKAINAIGQFLKERGVKFGFGGAGSFKQPLFDDEGTTCIGVETADGTKYYADKVVLAAGAWSPTLVDLEDQCCSKAWVYAHIQLTPEEAAKYKGCPVVYHGEFGFFFEPDEFGVIKVCDEFPGFSRFKEHQPYGAPSPKRISVPRSHAKHPTDTYPDASEVSIKKAIATFLPRFKDKPLFNRALCWCTDTADSTLLMCEHPKWKNFILATGDSGHSFKILPNVGKYVVELIEGRLPEEMAYQWRWRPGGDALKSRRAAPPKDLADMPGWKHD | – | 5.3 | ΔA at 751 nm against HbA1c concentration; cationic-surfactant-treated sample (Reagent G1 or G2) (hemoglobin A1c, P68871): In both cases where the sample was diluted with either Reagent G1 or Reagent G2, a good correlation was established between the HbA1c concentration and ΔA
PnFX-62D/106K/110L/113K (protein) MAPSRANTSVIVVGGGGTIGSSTALHLVRSGYTPSNVTVLDAYPIPSSQSAGNDLNKIMGVDLRNPVDLQLALEARQMWNEDELFKKFFHNTGRLDCAHGEKDIAKLKSLYQKLVDAGLDATNEWLDSEDEILKRMPLLSRDQIKGWKAIFSKDGGWLAAAKAINAVGEYLRDQGVRFGFYGAGSFKAPLLAEGVCIGVETVDGTRYYADKVVLAAGAWSPTLVELHEQCVSKAWVYGHIQLTPEEAARYKNSPVVYNGDVGFFFEPNEHGVIKVCDEFPGFTRFKMHQPFGAKAPKRISVPRSHAKHPTDTIPDASDVSIRRAIATFMPQFKNKKMFNQAMCWCTDTADAALLICEHPEWKNFVLATGDSGHSFKLLPNIGKHVVELLEGTLADDLAHAWRWRPGSGDALKSRRSAPAKDLADMPGWNHDKPRANL | – | 0.125 | specific activity on αF6P, fold over PnFX before mutation [2]: specific activity on αF6P was elevated by 13.7 fold
PnFX-62D/63H/106K/110L/113K/351S (protein) MAPSRANTSVIVVGGGGTIGSSTALHLVRSGYTPSNVTVLDAYPIPSSQSAGNDLNKIMGVDHRNPVDLQLALEARQMWNEDELFKKFFHNTGRLDCAHGEKDIAKLKSLYQKLVDAGLDATNEWLDSEDEILKRMPLLSRDQIKGWKAIFSKDGGWLAAAKAINAVGEYLRDQGVRFGFYGAGSFKAPLLAEGVCIGVETVDGTRYYADKVVLAAGAWSPTLVELHEQCVSKAWVYGHIQLTPEEAARYKNSPVVYNGDVGFFFEPNEHGVIKVCDEFPGFTRFKMHQPFGAKAPKRISVPRSHAKHPTDTIPDASDVSIRRAIATFMPQFKNKKMFNQAMCWCTDTADSALLICEHPEWKNFVLATGDSGHSFKLLPNIGKHVVELLEGTLADDLAHAWRWRPGSGDALKSRRSAPAKDLADMPGWNHDKPRANL | – | 0.667 | –
amadoriase exhibiting 95% sequence identity with ketoamine oxidase derived from Curvularia clavata (protein) MAPSRANTSVIVVGGGGTIGSSTALHLVRSGYTPSNITVLDAYPIPSSQSAGNDLNKIMGIRLRNKVDLQLSLEARQMWREDDLFKEYFHNTGRLDCAHGEEGLADLRQAYQALLDANAGLEETTEWLDSEDEILKKMPLLSRDQIKGWKAVYSQDGGWLAAAKAINAIGEYLRAQGVKFGFGGAGSFKQPLLAEGVCIGVETVDGTRYYADKVVLAAGAWSPTLVELHEQCVSKAWVYGHIQLTPEEAAEYKNSPVVYNGDVGFFFEPNEHGVIKVCDEFPGFTRFKMHQPFGAKAPKRISVPRSHAKHPTDTIPDASEKSIRKAIATFLPKFTEKELFNRHLCWCTDTADAALLICEHPEWKNFVLATGDSGHSFKLLPNIGKHVVELLEGTLADDLAHAWRWRPGSGDALKSRRSAPAKDLADMPGWKHDDVVKSKL | 0 | – | –
CFP-T7-H3 (protein) MTSNRADTRVIVVGGGGTIGSSTALHLVRSGYAPANITVLDTFEIPSAQSAGHDLNKIMGIALRNKVDLQMSLEARQMWKEDELFQPFFHNTGRMDCEHTPEGIEDLKKFYQALHDAGAGLEKTHAWLDNEDEILSKMPLLQRDQIQGWKAIWSQDGGWLAAAKAINAIGQFLKERGVKFGFGGAGSFKQPLFDDEGTTCIGVETADGTKYYADKVVLAAGAWSPTLVDLEDQCCSKAWVYAHIQLTPEEAAEYKGVPVVYNGEFGFFFEPDEFGVIKVCDEFPGFSRFKEHQPYGAPSPKRISVPRSHAKHPTDTYPDASEVSIKKAIATFLPRFQDKELFNRALCWCTDTADAALLMCEHPKWKNFILATGDSGHSFKILPNVGKYVVELIEGRLPEEMAYQWRWRPGGDALKSRRAAPPKDLADMPGWKHDPKL | 0.0298 | – | –
Cc95FX-62D/63H/106K/110L/113K/353S (protein) MAPSRANTSVIVVGGGGTIGSSTALHLVRSGYTPSNITVLDAYPIPSSQSAGNDLNKIMGIDHRNKVDLQLSLEARQMWREDDLFKEYFHNTGRLDCAHGEEGLAKLRQLYQKLLDANAGLEETTEWLDSEDEILKKMPLLSRDQIKGWKAVYSQDGGWLAAAKAINAIGEYLRAQGVKFGFGGAGSFKQPLLAEGVCIGVETVDGTRYYADKVVLAAGAWSPTLVELHEQCVSKAWVYGHIQLTPEEAAEYKNSPVVYNGDVGFFFEPNEHGVIKVCDEFPGFTRFKMHQPFGAKAPKRISVPRSHAKHPTDTIPDASEKSIRKAIATFLPKFTEKELFNRHLCWCTDTADSALLICEHPEWKNFVLATGDSGHSFKLLPNIGKHVVELLEGTLADDLAHAWRWRPGSGDALKSRRSAPAKDLADMPGWKHDDVVKSKL | 237 | – | –
CFP-T7-H4 (protein) MTSNRADTRVIVVGGGGTIGSSTALHLVRSGYAPANITVLDTFEIPSAQSAGHDLNKIMGIALRNKVDLQMSLEARQMWKEDELFQPFFHNTGRMDCEHTPEGIEDLKKYYQALHDAGAGLEKTHAWLDNEDEILSKMPLLQRDQIQGWKAIWSQDGGWLAAAKAINAIGQFLKERGVKFGFGGAGSFKQPLFDDEGTTCIGVETADGTKYYADKVVLAAGAWSPTLVDLEDQCCSKAWVYAHIQLTPEEAAEYKGVPVVYNGEFGFFFEPDEFGVIKVCDEFPGFSRFKEHQPYGAPSPKRISVPRSHAKHPTDTYPDASEVSIKKAIATFLPRFQDKELFNRALCWCTDTADAALLMCEHPKWKNFILATGDSGHSFKILPNVGKYVVELIEGRLPEEMAYQWRWRPGGDALKSRRAAPPKDLADMPGWKHDPKL | 0.0341 | – | –
